Data: paper PMC9159282, “Structural basis of human LRG1 recognition by Magacizumab, a humanized monoclonal antibody with therapeutic potential” (Acta Crystallographica. Section D, Structural Biology, 2022)

Molecular target: T1, 15-amino-acid peptide corresponding to the epitope in LRG1 (human)
T1 construct: leucine-rich alpha-2-glycoprotein 1 (LRG1), human; Gln5Pep is Gln225 of LRG1
T1 chain: GNKLQVLGKDLLLPQ
Assay: crystal structure; co-crystallization at MagaFab:peptide molar ratios of 1:2 and 1:5, MagaFab 12 mg/ml, 0.2 M NaCl, 0.1 M bis-Tris pH 5.5, 25%(w/v) PEG 3350; two Fab and two peptide molecules per asymmetric unit
Conditions: both partners purified

binding result: binds
B1: Magacizumab Fab fragment (Fab, V domains shown)
VH: QVQLVQSGAEVKKPGSSVKVSCKASGYTFSGYWMNWVRQAPGQGLEWIGQIYPGDGDTNYNGKFKGRVTITADKSTSTAYMELSSLRSEDTAVYYCARSITTVVLDYWGQGTTVTVSS
VL: DIVLTQSPDSLAVSLGERATISCRASQSVSTSGYSFMHWYQQKPGQPPKLLIKYASNLESGVPARFSGSGSGTDFTLTISSLQPEDFATYYCQHSWEMPLTFGQGTKLEIK
notes: heavy (VH) chain of MagaFab is chain B (second copy: chain D) of the deposited structure PDB 7q4q; light (VL) chain of MagaFab is chain A (second copy: chain C) of the deposited structure PDB 7q4q; Fab of a humanized IgG4 derived from the mouse monoclonal antibody 15C4; Observed mass of the Fab 47 461 Da, computed 47 412 Da; also called MagaFab; source: Magacizumab: CHO cell-based expression …
